A word on the EC50: it is the midpoint of the concentration-response curve.

Numbering of substitutions follows the chain as printed. Read-outs that look alike come from different tables or passages of the source. Where only a bound is given, the exact number is not on record here.

Test [1] deals with T1, TF on the surface of tumor cells (MDA-MB-231, HPAF-II, HCC1806, BxPC3, HCC44, PC9, H1975 and other … (UniProt P13726 33-295, limits assumed)). As to the kind of experiment: cell-based or functional assay.
Test [2] addresses T1, TF on the surface of tumor cells …. Description: flow cytometry on MDA-MB-231 cells, PE-labeled secondary antibody. Background: A flow cytometer gives signals particle by particle.
For test [3] the target is unchanged. Description: cell-based or functional assay. The source holds these as a separate data set.

B1: F1-A01-FC1-MMAE (F1-A01-FC1 coupled to mc-vc-MMAE) (Fc fusion)
chain: EVQLVESGGGLVQAGGSLRLSCAASGRAFSAYAMGWFRQAPGKEREFVAAISWSGGSTYYADSVRGRFTISRDNTKNTVYLQMNSLKPEDTAVYYCNADSLLSLLDGSRGGPGTDSGSWGQGTQVTVSSEPKSSDKTHTCPPCPAPEFEGGPSVFLFPPKPKDTLMISRTPEVTCVVVDVSHEDPEVKFNWYVDGVEVHNAKTKPREEQYNSTYRVVSVLTVLHQDWLNGKEYKCKVSNKALPASIEKTISKAKGQPREPQVYTLPPSRDELTKNQVSLTCLVKGFYPSDIAVEWESNGQPENNYKTTPPVLDSDGSFFLYSKLTVDKSRWQQGNVFSCSVMHEALHNHYTQKSLSLSPGK
modifications: mc-vc-MMAE coupled to cysteine thiols after TCEP reduction; target DAR 4 (about 91% DAR4 by HIC); positions not given
Turning to B1, in test [1], the “Cell proliferation inhibition IC50, BxPC3 cells (MTS)” value worked out at 1.2 ng/mL; the “Cell proliferation inhibition IC50, HCC1806 cells (MTS)” value worked out at 4 ng/mL; the “Cell proliferation inhibition IC50, HPAF-II cells (MTS)” value stood at 0.7 ng/mL.

B2: 5-C12-FC1-MMAE (5-C12-FC1 coupled to mc-vc-MMAE) (Fc fusion)
chain: QVQLVESGGGLAQAGGSLRLSCAGSGRTFSTDAMGWFRQAPGKEREFVAAINWSGGSTYYADSVKGRFTISRDNAKNTVYLQMNSVKPEDTAVYYCVADSLLALLDGSRGGPGTDSDSWGQGTQVTVSSEPKSSDKTHTCPPCPAPEFEGGPSVFLFPPKPKDTLMISRTPEVTCVVVDVSHEDPEVKFNWYVDGVEVHNAKTKPREEQYNSTYRVVSVLTVLHQDWLNGKEYKCKVSNKALPASIEKTISKAKGQPREPQVYTLPPSRDELTKNQVSLTCLVKGFYPSDIAVEWESNGQPENNYKTTPPVLDSDGSFFLYSKLTVDKSRWQQGNVFSCSVMHEALHNHYTQKSLSLSPGK
modifications: mc-vc-MMAE coupled to cysteine thiols after TCEP reduction; DAR4 about 66.2% and DAR2 about 21.9% by HIC; positions not given
Consider B2, for which, in test [1], the “Cell proliferation inhibition IC50, BxPC3 cells (MTS)” value came out at 5 ng/mL; the “Cell proliferation inhibition IC50, HCC1806 cells (MTS)” value is 26 ng/mL; the “Cell proliferation inhibition IC50, HPAF-II cells (MTS)” value worked out at 12 ng/mL.

B3: 4-C05-FC1-MMAE (4-C05-FC1 coupled to mc-vc-MMAE) (Fc fusion)
chain: QVQLVESGGGLVQPGGSLRLSCAASGFTLDTYAIGWIRQAPGKEREGVSCISSTDGSTYYAASVKGRFTINRDNAKNTVYLQMNSLKPEDTAVYYCAAGPGTDCPLRFDYWGQGIQVTVSSEPKSSDKTHTCPPCPAPEFEGGPSVFLFPPKPKDTLMISRTPEVTCVVVDVSHEDPEVKFNWYVDGVEVHNAKTKPREEQYNSTYRVVSVLTVLHQDWLNGKEYKCKVSNKALPASIEKTISKAKGQPREPQVYTLPPSRDELTKNQVSLTCLVKGFYPSDIAVEWESNGQPENNYKTTPPVLDSDGSFFLYSKLTVDKSRWQQGNVFSCSVMHEALHNHYTQKSLSLSPGK
modifications: mc-vc-MMAE coupled to cysteine thiols after TCEP reduction; target DAR 4; positions not given
As for B3, in test [1], the “Cell proliferation inhibition IC50, BxPC3 cells (MTS)” value came out at 8.6 ng/mL; the “Cell proliferation inhibition IC50, HCC1806 cells (MTS)” value came to 14 ng/mL; the “Cell proliferation inhibition IC50, HPAF-II cells (MTS)” value was found to be 7.7 ng/mL.

B4: 4-C08-FC1-MMAE (4-C08-FC1 coupled to mc-vc-MMAE) (Fc fusion)
chain: DVQLVESGGGLVQPGGSLRLSCAVSGFSLSSYDMNWYRQGPGKEREWVANIHSSGGYPDYADAVKGRFTISRDNAKNMVYLQMNSLKPEDTAVYYCNLPPSRRWYKDYWGQGTQVTVSSEPKSSDKTHTCPPCPAPEFEGGPSVFLFPPKPKDTLMISRTPEVTCVVVDVSHEDPEVKFNWYVDGVEVHNAKTKPREEQYNSTYRVVSVLTVLHQDWLNGKEYKCKVSNKALPASIEKTISKAKGQPREPQVYTLPPSRDELTKNQVSLTCLVKGFYPSDIAVEWESNGQPENNYKTTPPVLDSDGSFFLYSKLTVDKSRWQQGNVFSCSVMHEALHNHYTQKSLSLSPGK
modifications: mc-vc-MMAE coupled to cysteine thiols after TCEP reduction; DAR4 about 41.8% and DAR2 about 42.7% by HIC; positions not given
With B4, in test [1], the “Cell proliferation inhibition IC50, BxPC3 cells (MTS)” value is 0.7 ng/mL; the “Cell proliferation inhibition IC50, HCC1806 cells (MTS)” value worked out at 0.5 ng/mL; the “Cell proliferation inhibition IC50, HPAF-II cells (MTS)” value amounted to 1 ng/mL.

B5: 4-C08-FC1 (chimeric nanobody: 4-C08 VHH fused with human Fc mutant fragment FC1) (Fc fusion)
chain: B4 chain
notes: built from the VHH and FC1
As to B5, the EC50 in test [2] was 50 ng/mL.

B6: 4-A02-ABD-MMAE (4-A02-ABD coupled to mc-vc-MMAE) (other)
chain: QVQLVESGGGLVQPGGSLSLSCTASETISSTYIMGWHRRSPGKERELVAVISGDGVTHYADFVKGRFVISRDNAKNAVYLKMNFLTPEDTAVYYCYAAGRWNHWGQGTQVTVSSGGGGSGGGGSGGGGSQHDEAVDANSLAEAKVLANRELDKYGVSDYYKNLINNAKTVEGVKALIDEILAALPAAACAAAHHHHHH
modifications: mc-vc-MMAE coupled to a cysteine thiol after TCEP reduction; DAR 1; position not stated
B6: in test [3], the “Cell proliferation inhibition IC50, BxPC3 cells (MTS)” value came to 0.3 ng/mL; the “Cell proliferation inhibition IC50, H1975 cells (MTS)” value turned out to be 163 ng/mL; the “Cell proliferation inhibition IC50, HCC44 cells (MTS)” value is 79.4 ng/mL; the “Cell proliferation inhibition IC50, HPAF-II cells (MTS)” value was 1.3 ng/mL. Also, the “Cell proliferation inhibition IC50, PC9 cells (MTS)” value in test [3] came out at 5 ng/mL.

B7: 4-A02-FC1-MMAE (4-A02-FC1 coupled to mc-vc-MMAE) (Fc fusion)
chain: QVQLVESGGGLVQPGGSLSLSCTASETISSTYIMGWHRRSPGKERELVAVISGDGVTHYADFVKGRFVISRDNAKNAVYLKMNFLTPEDTAVYYCYAAGRWNHWGQGTQVTVSSEPKSSDKTHTCPPCPAPEFEGGPSVFLFPPKPKDTLMISRTPEVTCVVVDVSHEDPEVKFNWYVDGVEVHNAKTKPREEQYNSTYRVVSVLTVLHQDWLNGKEYKCKVSNKALPASIEKTISKAKGQPREPQVYTLPPSRDELTKNQVSLTCLVKGFYPSDIAVEWESNGQPENNYKTTPPVLDSDGSFFLYSKLTVDKSRWQQGNVFSCSVMHEALHNHYTQKSLSLSPGK
modifications: mc-vc-MMAE coupled to cysteine thiols after TCEP reduction; target DAR 4 for the dimer (about 95% DAR4 by HIC); positions not given
Regarding B7, in test [1], the “Cell proliferation inhibition IC50, BxPC3 cells (MTS)” value is 0.1 ng/mL; the “Cell proliferation inhibition IC50, HCC1806 cells (MTS)” value stood at 0.1 ng/mL; the “Cell proliferation inhibition IC50, HPAF-II cells (MTS)” value stood at 0.7 ng/mL. For the same molecule, in test [3], the “Cell proliferation inhibition IC50, BxPC3 cells (MTS)” value was 0.8 ng/mL; the “Cell proliferation inhibition IC50, H1975 cells (MTS)” value amounted to 2.2 ng/mL; the “Cell proliferation inhibition IC50, HCC44 cells (MTS)” value came to 2.2 ng/mL; the “Cell proliferation inhibition IC50, HPAF-II cells (MTS)” value was 0.2 ng/mL. Further, in test [3], the “Cell proliferation inhibition IC50, PC9 cells (MTS)” value was 0.4 ng/mL.

B8: 4-A02-FC1-DXd (4-A02-FC1 coupled to GGFG-DXd) (Fc fusion)
chain: B7 chain
modifications: GGFG-DXd coupled to cysteine thiols after TCEP reduction; DAR 4; positions not given
As for B8, in test [3], the “Cell proliferation inhibition IC50, BxPC3 cells (MTS)” value was 2.5 ng/mL; the “Cell proliferation inhibition IC50, H1975 cells (MTS)” value was over 15000 ng/mL; the “Cell proliferation inhibition IC50, HCC44 cells (MTS)” value was determined as 19.1 ng/mL; the “Cell proliferation inhibition IC50, HPAF-II cells (MTS)” value came to 2.4 ng/mL. Besides, in test [3], the “Cell proliferation inhibition IC50, PC9 cells (MTS)” value is 5630 ng/mL.

B9: 4-E04-FC1-MMAE (4-E04-FC1 coupled to mc-vc-MMAE) (Fc fusion)
chain: B7 chain with Q1A, T23A, T27M, H37Y, A60G, V68A, A74V, Y96N, W101R
modifications: mc-vc-MMAE coupled to cysteine thiols after TCEP reduction; the coupling did not complete and the proportion of coupling products was very low; positions not given
Turning to B9, in test [1], the “Cell proliferation inhibition IC50, BxPC3 cells (MTS)” value was 28.8 ng/mL; the “Cell proliferation inhibition IC50, HCC1806 cells (MTS)” value came out at 32.6 ng/mL; the “Cell proliferation inhibition IC50, HPAF-II cells (MTS)” value was determined as 24.3 ng/mL.
